Measured values: article PMC8752837, “Structural basis of BAK activation in mitochondrial apoptosis initiation” (Nature Communications, 2022)

Target: T1, GST-BAK (human)
T1 chain: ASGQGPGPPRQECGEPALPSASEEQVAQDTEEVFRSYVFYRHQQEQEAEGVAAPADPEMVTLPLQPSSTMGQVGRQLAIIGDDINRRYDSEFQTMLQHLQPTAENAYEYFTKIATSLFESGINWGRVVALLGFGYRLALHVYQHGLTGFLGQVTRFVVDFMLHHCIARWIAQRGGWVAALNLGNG
Test: fluorescence polarisation; competitive: displacement of 10 nM BID BH3 SAHB-F from 1 µM GST-BAK by peptides at 500-0.2 µM; 50 mM Tris-HCl pH 7.5, 50 mM KCl, 0.1 mg/mL BSA, 2 mM DTT, 0.005% Tween-20; 60 min at RT
Details: both partners purified

IC50: 27.4 ± 16.4 µM
B1: W(0') BID BH3 peptide (peptide)
chain: Ac-EDWIRNIARHLAQVGDSMDRSI-NH2
